First the molecules themselves.
B1: RTP4 (parent)
chain: TYWEHWTSQGQVRMRLFGQRCQKC
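Further: lentivirally expressed fusions sorted by FACS into six bins by GFP to DsRed ratio, PSI derived from sequencing read proportions per bin multiplied by bin number.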

Variants of B1 are the subject of the data set. The data set is described as follows: protein stability index of a GFP-peptide fusion (GPS, HEK-293T) (PSI 1-6); higher = more stable. The settings on record: c terminus: a fixed tail appended.
For TYWEHWTSQGQVRMRLSGQRCQKC, the protein stability index worked out at 2.27.

TYWEHWTSQGQVRMRLAGQRCQKC: the protein stability index was determined as 1.87. With TYWEHWTSQGQVRMRLLGQRCQKC the figure was 1.85; with TYWEHWTSQGQVRMRLNGQRCQKC, 2.9; with TYWEHWTSQGQVRMRLYGQRCQKC, 1.55. The same measure for TYWEHWTSQGQVRMRLPGQRCQKC: 2.38; for TYWEHWTSQGQVRMRLTGQRCQKC: 2.02. For TYWEHWTSQGQVRMRLKGQRCQKC, the protein stability index stood at 1.92.

In the case of TYWEHWTSQGQVRMRLGGQRCQKC, the protein stability index worked out at 2.31.

Regarding TYWEHWTSQGQVRMRLEGQRCQKC, the protein stability index amounted to 2.29. With TYWEHWTSQGQVRMRLDGQRCQKC the figure was 2.01; with TYWEHWTSQGQVRMRLMGQRCQKC, 2.37; with TYWEHWTSQGQVRMRLWGQRCQKC, 2.44. As to TYWEHWTSQGQVRMRLQGQRCQKC, the protein stability index was 2.26.

As to TYWEHWTSQGQVRMRLIGQRCQKC, the protein stability index turned out to be 1.67. For TYWEHWTSQGQVRMRLHGQRCQKC, the protein stability index is 2.79. With TYWEHWTSQGQVRMRLCGQRCQKC, the protein stability index is 2.57. For TYWEHWTSQGQVRMRLFGQRHQKC, the protein stability index is 2.23.

For the variant TYWEHWTSQGQVRMRLFGQRPQKC, the protein stability index turned out to be 3.25. The same measure for TYWEHWTSQGQVRMRLFGQRFQKC: 1.39; for TYWEHWTSQGQVRMRLFGQRMQKC: 1.7; for TYWEHWTSQGQVRMRLFGQREQKC: 2.46. The same measure for TYWEHWTSQGQVRMRLFGQRGQKC: 2.46. In the case of TYWEHWTSQGQVRMRLFGQRYQKC, the protein stability index was determined as 1.81.

TYWEHWTSQGQVRMRLFGQRQQKC: the protein stability index turned out to be 2.12.

For TYWEHWTSQGQVRMRLFGQRLQKC, the protein stability index turned out to be 2.4. The same measure for TYWEHWTSQGQVRMRLFGQRDQKC: 2.75; for TYWEHWTSQGQVRMRLFGQRTQKC: 1.78; for TYWEHWTSQGQVRMRLFGQRIQKC: 1.98. The same measure for TYWEHWTSQGQVRMRLFGQRAQKC: 1.94; for TYWEHWTSQGQVRMRLFGQRNQKC: 2.15; for TYWEHWTSQGQVRMRLFGQRRQKC: 2.4. Regarding TYWEHWTSQGQVRMRLFGQRKQKC, the protein stability index came out at 2.45. Turning to TYWEHWTSQGQVRMRLFGQRCRKC, the protein stability index was determined as 1.92.

As to TYWEHWTSQGQVRMRLFGQRCPKC, the protein stability index is 1.68. Consider TYWEHWTSQGQVRMRLFGQRCLKC, for which the protein stability index stood at 2.36. The same measure for TYWEHWTSQGQVRMRLFGQRCSKC: 1.33; for TYWEHWTSQGQVRMRLFGQRCHKC: 1.69; for TYWEHWTSQGQVRMRLFGQRCEKC: 1.09. As to TYWEHWTSQGQVRMRLFGQRCKKC, the protein stability index worked out at 1.61. With TYWEHWTSQGQVRMRLFGQRCAKC the figure was 2.06; with TYWEHWTSQGQVRMRLFGQRCIKC, 1.52. With TYWEHWTSQGQVRMRLFGQRCNKC, the protein stability index was determined as 1.71. The same measure for TYWEHWTSQGQVRMRLFGKRCQKC: 1.8; for TYWEHWTSQGQVRMRLFGSRCQKC: 1.61; for TYWEHWTSQGQVRMRLFGWRCQKC: 2.6.

In the case of TYWEHWTSQGQVRMRLFGIRCQKC, the protein stability index stood at 2.31. With TYWEHWTSQGQVRMRLFGVRCQKC the figure was 2.23; with TYWEHWTSQGQVRMRLFGCRCQKC, 2.9; with TYWEHWTSQGQVRMRLFGFRCQKC, 1.66. In the case of TYWEHWTSQGQVRMRLFGHRCQKC, the protein stability index was determined as 2.6. With TYWEHWTSQGQVRMRLFGNRCQKC, the protein stability index is 1.58. The same measure for TYWEHWTSQGQVRMRLFGARCQKC: 1.98; for TYWEHWTSQGQVRMRLFGLRCQKC: 1.04; for TYWEHWTSQGQVRMRLFGGRCQKC: 1.45. With TYWEHWTSQGQVRMRLFGPRCQKC the figure was 1.25.

With TYWEHWTSQGQVRMRLFGDRCQKC, the protein stability index is 1.97. The same measure for TYWEHWTSQGQVRMRLFGRRCQKC: 1.46; for TYWEHWTSQGQVRMRLFGERCQKC: 1.62. Consider TYWEHWTSQGQVRMRLFGTRCQKC, for which the protein stability index amounted to 1.05. Take TYWEHWTSQGQVRMRLFGYRCQKC: the protein stability index was 1.03. As to TYWEHWTSQGQVRYRLFGQRCQKC, the protein stability index was determined as 1.9. The same measure for TYWEHWTSQGQVRLRLFGQRCQKC: 1.39. With TYWEHWTSQGQVRNRLFGQRCQKC the figure was 1.69.

As to TYWEHWTSQGQVRGRLFGQRCQKC, the protein stability index came to 2.51. With TYWEHWTSQGQVRQRLFGQRCQKC the figure was 1.73; with TYWEHWTSQGQVRDRLFGQRCQKC, 2.05; with TYWEHWTSQGQVRSRLFGQRCQKC, 1.5. The same measure for TYWEHWTSQGQVRWRLFGQRCQKC: 1.77; for TYWEHWTSQGQVRKRLFGQRCQKC: 2.9. With TYWEHWTSQGQVRARLFGQRCQKC the figure was 2; with TYWEHWTSQGQVRCRLFGQRCQKC, 2.58; with TYWEHWTSQGQVRRRLFGQRCQKC, 2.29. As for TYWEHWTSQGQVRFRLFGQRCQKC, the protein stability index stood at 1.63.

Turning to TYWEHWTSQGQVRHRLFGQRCQKC, the protein stability index stood at 2.18. For TYWEHWTSQGQVRVRLFGQRCQKC, the protein stability index was determined as 1.89. With TYWEHWTSQGQVRERLFGQRCQKC the figure was 2.36; with TYWEHWTSQGQVRTRLFGQRCQKC, 1.84; with TYWEHWTSQGQVRMRLFGQECQKC, 1.57.

As to TYWEHWTSQGQVRMRLFGQTCQKC, the protein stability index worked out at 2.22. The same measure for TYWEHWTSQGQVRMRLFGQMCQKC: 2.69. For the variant TYWEHWTSQGQVRMRLFGQCCQKC, the protein stability index came out at 2.72. Regarding TYWEHWTSQGQVRMRLFGQNCQKC, the protein stability index turned out to be 1.34.

On to TYWEHWTSQGQVRMRLFGQQCQKC, for which the protein stability index came out at 1.24.

Turning to TYWEHWTSQGQVRMRLFGQLCQKC, the protein stability index worked out at 1.75.

For the variant TYWEHWTSQGQVRMRLFGQGCQKC, the protein stability index came out at 1.93. The same measure for TYWEHWTSQGQVRMRLFGQICQKC: 1.03; for TYWEHWTSQGQVRMRLFGQYCQKC: 1.97; for TYWEHWTSQGQVRMRLFGQFCQKC: 1.82.

Consider TYWEHWTSQGQVRMRLFGQSCQKC, for which the protein stability index is 1.65. As to TYWEHWTSQGQVRMRLFGQPCQKC, the protein stability index was determined as 1.78.

Take TYWEHWTSQGQVRMRLFGQKCQKC: the protein stability index stood at 1.86. With TYWEHWTSQGQVRMRLFGQWCQKC the figure was 2.49; with TYWEHWTSQGQVRMRLFGQHCQKC, 1.63.

For the origin of these results see the supplement of paper PMC10567573.
